Molecular target: Anastellin
Assay: BLI; Octet RED96, anastellin (100 µg/ml) covalently coupled to AR2G biosensors via amine groups, sensors dipped into LOX-PP solutions for 3 min in HBS-P20; 1:1 model

B1: recombinant human propeptide of lysyl oxidase (LOX-PP) (domain or fragment)
chain: APLAAGQQQPPREPPAAPGAWRQQIQWENNGQVFSLLSLGSQYQPQRRRDPGAAVPGAANASAQQPRTPILLIRDNRTAAARTRTAGSSGVTAGRPRPTARHWFQAGYSTSRAREAGASRAENQTAPGEVPALSNLRPPSRVDGMVG
modifications: N-linked oligosaccharides (removed by PNGase F, about 13 kDa; three glycosylated asparagine residues: N81, N97, N144)
In the case of B1, the Kd is reported as 152 nM, the koff is reported as 0.000445 s⁻¹ and the kon is reported as 2930 M⁻¹ s⁻¹.

Reference: PMC6078952
